These results are taken from patent US20220153851A1 (Five Prime, published 2022).

For assay [1], the target named is human CSF1R on CSF1R (SEQ ID NO: 2)-transfected CHO cells (human, UniProt P07333 20-972). The assay is described as follows: cell-based or functional assay.
Assay [2] concerns the target T1, cynoCSF1R ECD-Fc (cynomolgus).
T1 construct: also called cynomolgus CSF1R ECD
The assay is described as follows: ELISA, plate coated with cynoCSF1R ECD-Fc. Put shortly: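 Plates coated overnight with 2 μg/ml recombinant cynomolgus CSF1R ECD-Fc (no 19-aa leader); humanized or parental chimeric antibody added as 0.5× serial dilutions from 2000 ng/ml, 90 min RT. Bound antibody detected with peroxidase anti-human kappa (60 min RT) and OPD substrate (30 min), read at A450.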

In another assay the target is T2, hCSF1R ECD.506-Fc (human).
T2 construct: also called human CSF1R ECD-Fc fusion protein; human CSF1R ECD
Nature of the assay: ELISA, plate coated with human CSF1R ECD-Fc. In a few lines:
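Plates coated overnight with 1 μg/ml hCSF1R ECD.506-Fc or human M-CSF R Fc chimera; humanized or parental chimeric antibody added as 0.5× serial dilutions from 2000 ng/ml, 90 min at RT. Bound antibody detected with peroxidase anti-human kappa (60 min) and o-phenylenediamine substrate (30 min), A450 read.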

In assay [3] the target is T1, cynoCSF1R ECD-Fc. The assay is described as follows: competition ELISA, blocking of human IL34 binding to cynoCSF1R ECD-Fc.
For the next assay, the target named is T3, mCSF1R ECD-Fc (mouse).
T3 construct: also called mouse CSF1R ECD
The assay is described as follows: ELISA, plate coated with mCSF1R ECD-Fc, detection anti-human kappa-HRP, A450. In a few lines: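 Humanized or parental chimeric antibodies, 0.5× serial dilutions from 2000 ng/ml, bound for 90 min at RT to wells coated overnight with 2 μg/ml recombinant mouse CSF1R ECD-Fc; blocked with Blocker-Blotto. Bound antibody detected with HRP anti-human kappa (60 min RT) and o-phenylenediamine substrate, 30 min, A450.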

The next assay deals with T4, hCSF1R ECD.506 (human, UniProt P07333 20-506).
T4 construct: also called human CSF1R ECD
Nature of the assay: SPR Biacore T100, antibody captured on anti-human IgG, hCSF1R ECD.506 as analyte, 1:1 model. In a few lines: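 Humanized anti-CSF1R antibodies were captured on an anti-human IgG CM5 chip at 150 RU, with Rmax for hCSF1R ECD.506 analyte at 100 RU. ka, kd and KD were fitted with a 1:1 binding model.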

Assay [4] addresses T1, cynoCSF1R ECD-Fc. The assay is described as follows: competition ELISA, blocking of human CSF1 binding to cynoCSF1R ECD-Fc (curve-fit value beyond the range tested). As for the experimental part:
Recombinant Human CSF1 (M-CSF; R&D Systems) was biotinylated using an NH₂-Biotin Labeling Kit (Dojindo Molecular Technologies). One hundred μl of 1 μg/ml biotinylated CSF1 in PBST/0.1% BSA was added to the wells of Reacti-Bind Streptavidin coated plates (Pierce) pre-blocked with SuperBlock blocking buffer (Pierce) according to the manufacturer's instructions. Fifty μl of 0.5× serial dilutions of the humanized antibody or parental chimeric antibody, beginning with 2000 ng/ml, was incubated with 50 ng/ml hCSF1R ECD.506-Fc (SEQ ID NO: 6; FivePrime Therapeutics) or 50 ng/ml cynoCSF1R ECD-Fc (FivePrime Therapeutics, SEQ ID NO: 8, but without the 19 amino acid leader sequence) in 100 μl PBST/0.1% BSA for 90 min at RT, after which the admix was transferred to one or more wells of a ligand-coated plate. After 90 min at RT, wells were washed with PBST, and a 1:5000 dilution of an Fc-fragment-specific peroxidase-conjugated goat anti-human IgG (Jackson Immuno Research) in PBST/0.1% BSA was added to each well. After incubation at RT for 60 min, wells were washed with PBST/0.1% BSA, and o-phenylenediamine dihydrochloride peroxidase substrate (Sigma) was added to each well. After incubation at RT for 30 min, A450 values of each well were read directly on a SpectraMaxPlus spectrophotometer with SoftMaxPro software (Molecular Devices).

T1 sequence (chain, as listed by the source): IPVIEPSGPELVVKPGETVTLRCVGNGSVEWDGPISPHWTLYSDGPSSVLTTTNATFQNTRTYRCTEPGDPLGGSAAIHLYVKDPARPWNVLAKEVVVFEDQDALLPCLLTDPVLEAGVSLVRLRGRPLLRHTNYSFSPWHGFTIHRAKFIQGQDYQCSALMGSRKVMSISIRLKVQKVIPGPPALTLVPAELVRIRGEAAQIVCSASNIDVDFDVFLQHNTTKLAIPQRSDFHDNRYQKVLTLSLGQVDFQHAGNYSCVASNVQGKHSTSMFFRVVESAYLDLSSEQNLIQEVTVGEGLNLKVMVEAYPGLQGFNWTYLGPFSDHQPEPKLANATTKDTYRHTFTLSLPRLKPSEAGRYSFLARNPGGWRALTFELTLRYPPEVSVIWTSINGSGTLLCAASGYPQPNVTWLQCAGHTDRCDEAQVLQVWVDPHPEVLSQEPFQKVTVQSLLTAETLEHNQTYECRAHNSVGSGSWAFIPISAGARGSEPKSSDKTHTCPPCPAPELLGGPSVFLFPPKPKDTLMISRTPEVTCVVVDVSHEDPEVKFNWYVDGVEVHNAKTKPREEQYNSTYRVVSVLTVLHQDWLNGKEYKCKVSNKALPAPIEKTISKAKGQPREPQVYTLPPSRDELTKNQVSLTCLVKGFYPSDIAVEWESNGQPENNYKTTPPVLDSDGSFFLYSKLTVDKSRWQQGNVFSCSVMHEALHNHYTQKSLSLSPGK
T4 sequence (P07333 20-506): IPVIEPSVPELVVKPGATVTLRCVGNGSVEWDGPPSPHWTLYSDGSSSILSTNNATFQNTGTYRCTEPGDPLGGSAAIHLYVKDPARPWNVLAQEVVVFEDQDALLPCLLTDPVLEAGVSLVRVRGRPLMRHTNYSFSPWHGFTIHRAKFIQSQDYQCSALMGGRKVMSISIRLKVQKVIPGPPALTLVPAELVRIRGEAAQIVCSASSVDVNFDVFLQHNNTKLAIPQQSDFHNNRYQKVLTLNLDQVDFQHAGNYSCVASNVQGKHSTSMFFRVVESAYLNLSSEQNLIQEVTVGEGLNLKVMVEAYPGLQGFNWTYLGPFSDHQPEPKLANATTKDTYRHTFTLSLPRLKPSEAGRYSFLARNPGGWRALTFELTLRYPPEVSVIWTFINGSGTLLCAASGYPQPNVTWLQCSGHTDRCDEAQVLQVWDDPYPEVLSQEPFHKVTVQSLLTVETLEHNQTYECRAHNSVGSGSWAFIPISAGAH
Sequence of human CSF1R on CSF1R (SEQ ID NO: 2)-transfected CHO cells (P07333 20-972): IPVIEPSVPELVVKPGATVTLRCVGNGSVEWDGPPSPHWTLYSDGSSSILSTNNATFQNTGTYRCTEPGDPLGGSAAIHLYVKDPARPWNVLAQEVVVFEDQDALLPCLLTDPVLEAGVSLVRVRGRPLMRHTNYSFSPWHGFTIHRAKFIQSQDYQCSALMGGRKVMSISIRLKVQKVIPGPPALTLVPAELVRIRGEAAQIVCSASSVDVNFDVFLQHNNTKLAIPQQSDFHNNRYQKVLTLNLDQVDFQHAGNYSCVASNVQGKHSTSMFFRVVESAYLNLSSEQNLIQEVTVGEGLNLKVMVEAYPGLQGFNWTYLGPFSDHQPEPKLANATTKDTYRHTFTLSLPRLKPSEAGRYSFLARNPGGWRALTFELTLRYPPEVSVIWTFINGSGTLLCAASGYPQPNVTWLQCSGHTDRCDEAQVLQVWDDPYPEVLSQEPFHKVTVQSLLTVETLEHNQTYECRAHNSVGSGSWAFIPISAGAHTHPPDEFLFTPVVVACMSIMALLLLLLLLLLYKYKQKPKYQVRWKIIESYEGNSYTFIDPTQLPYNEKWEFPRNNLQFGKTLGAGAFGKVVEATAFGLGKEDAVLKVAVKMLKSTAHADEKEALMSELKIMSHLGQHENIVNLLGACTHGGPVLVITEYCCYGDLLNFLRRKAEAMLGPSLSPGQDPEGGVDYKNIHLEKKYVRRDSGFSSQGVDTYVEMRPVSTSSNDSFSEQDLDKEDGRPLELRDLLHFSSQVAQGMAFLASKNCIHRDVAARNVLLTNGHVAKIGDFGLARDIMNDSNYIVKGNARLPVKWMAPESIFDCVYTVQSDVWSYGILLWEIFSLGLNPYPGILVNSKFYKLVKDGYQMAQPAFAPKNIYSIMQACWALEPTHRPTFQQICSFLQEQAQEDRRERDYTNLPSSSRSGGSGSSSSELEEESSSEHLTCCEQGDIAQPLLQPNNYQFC
T2 sequence (chain, as listed by the source limits assumed): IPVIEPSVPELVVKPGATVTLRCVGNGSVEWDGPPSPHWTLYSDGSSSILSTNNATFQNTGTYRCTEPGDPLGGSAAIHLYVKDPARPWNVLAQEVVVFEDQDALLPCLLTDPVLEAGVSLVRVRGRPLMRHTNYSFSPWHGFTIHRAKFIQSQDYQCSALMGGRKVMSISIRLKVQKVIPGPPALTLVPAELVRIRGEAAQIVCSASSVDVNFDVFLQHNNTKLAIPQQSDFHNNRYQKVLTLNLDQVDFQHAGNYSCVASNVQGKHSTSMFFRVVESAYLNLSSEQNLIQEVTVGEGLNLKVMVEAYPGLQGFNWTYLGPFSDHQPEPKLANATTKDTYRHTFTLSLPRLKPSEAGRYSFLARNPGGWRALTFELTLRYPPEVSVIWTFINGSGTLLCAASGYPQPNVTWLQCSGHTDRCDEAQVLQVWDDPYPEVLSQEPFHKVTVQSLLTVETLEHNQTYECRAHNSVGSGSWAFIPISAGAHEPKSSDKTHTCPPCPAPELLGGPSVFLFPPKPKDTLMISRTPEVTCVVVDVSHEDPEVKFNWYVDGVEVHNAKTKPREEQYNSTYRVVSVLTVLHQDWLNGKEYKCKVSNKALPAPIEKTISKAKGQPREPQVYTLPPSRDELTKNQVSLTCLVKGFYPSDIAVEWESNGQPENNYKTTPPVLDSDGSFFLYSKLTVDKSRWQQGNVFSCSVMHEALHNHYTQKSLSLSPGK
T3 sequence (chain, as listed by the source limits assumed): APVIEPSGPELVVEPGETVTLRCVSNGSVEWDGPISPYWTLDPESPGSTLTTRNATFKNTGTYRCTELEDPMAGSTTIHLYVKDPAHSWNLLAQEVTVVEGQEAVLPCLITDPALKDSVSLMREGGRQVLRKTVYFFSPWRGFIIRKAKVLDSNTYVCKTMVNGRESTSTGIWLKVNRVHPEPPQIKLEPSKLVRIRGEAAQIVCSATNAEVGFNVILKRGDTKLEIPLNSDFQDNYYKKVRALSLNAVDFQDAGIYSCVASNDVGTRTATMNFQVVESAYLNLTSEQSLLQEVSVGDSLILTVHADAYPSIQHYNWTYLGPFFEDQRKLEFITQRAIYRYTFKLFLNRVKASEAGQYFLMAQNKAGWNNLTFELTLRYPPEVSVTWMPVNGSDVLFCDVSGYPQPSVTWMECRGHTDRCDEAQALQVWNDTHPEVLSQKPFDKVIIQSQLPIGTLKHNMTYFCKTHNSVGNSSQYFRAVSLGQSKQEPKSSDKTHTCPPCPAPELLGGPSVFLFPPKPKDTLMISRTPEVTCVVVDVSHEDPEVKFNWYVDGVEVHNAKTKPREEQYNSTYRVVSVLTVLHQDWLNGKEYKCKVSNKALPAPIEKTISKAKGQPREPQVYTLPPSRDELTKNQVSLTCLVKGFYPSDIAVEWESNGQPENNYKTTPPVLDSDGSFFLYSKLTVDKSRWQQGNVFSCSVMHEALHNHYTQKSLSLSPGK

B1: h0302-L2H1 (antibody, human IgG4 S228P, kappa, V domains shown)
VH: QVQLVQSGAEVKKPGSSVKVSCKASGYTFSDFNIHWVRQAPGQGLEWMGYINPYTDVTVYNEKFKGRVTITSDKSTSTAYMELSSLRSEDTAVYYCASYFDGTFDYALDYWGQGTLVTVSS
VL: EIVVTQSPATLSLSPGERATLSCRASESVDNYGLSFMNWFQQKPGQAPRLLIYTASNLESGIPARFSGSGSRTDFTLTISSLEPEDFAVYYCQQSKELPWTFGQGTKVEIKR
notes: also called Ab9; huAb 0302-L2H1
In the case of B1, in assay [1], the “IC50, inhibition of CSF1-induced CSF1R phosphorylation (head prints 'Human CSF1/Human CSF1R ECD IC50')” value worked out at 0.384 µg/mL and the “IC50, inhibition of IL34-induced CSF1R phosphorylation (head prints 'Human IL34/Human CSF1R ECD IC50')” value was found to be 0.303 µg/mL. Moreover, the EC50 in the assay with cynoCSF1R ECD-Fc [2] came to 0.066 µg/mL. Further, the concentration for a half-maximal effect (EC50) in the assay with hCSF1R ECD.506-Fc worked out at 0.00774 µg/mL. The same molecule had an IC50 with cynoCSF1R ECD-Fc [3] of 0.509 µg/mL. Besides, the binding result in the assay with mCSF1R ECD-Fc is reported as “no binding (tested: 2000 ng/ml)”. In addition, in the assay with hCSF1R ECD.506, binding was characterised by a dissociation constant (Kd) of 0.57 nM, the koff came out at 0.000914 s⁻¹ and the kon turned out to be 1.6e+06 M⁻¹ s⁻¹. Moreover, in the assay with cynoCSF1R ECD-Fc [4], the IC50 was found to be 89.8 µg/mL.
